Patent US20260152727A1
“And” between values parts separate entries of the source, which are not always exact repeats. Identical values can stand only once.

Biological target: RSV fusion (F) protein (prefusion F, on recombinant RSV strain A2 virions) (respiratory syncytial virus (strain A2)) (UniProt P03420)
Test: cell-based or functional assay

Chain of UniProt P03420 (P03420 26-574): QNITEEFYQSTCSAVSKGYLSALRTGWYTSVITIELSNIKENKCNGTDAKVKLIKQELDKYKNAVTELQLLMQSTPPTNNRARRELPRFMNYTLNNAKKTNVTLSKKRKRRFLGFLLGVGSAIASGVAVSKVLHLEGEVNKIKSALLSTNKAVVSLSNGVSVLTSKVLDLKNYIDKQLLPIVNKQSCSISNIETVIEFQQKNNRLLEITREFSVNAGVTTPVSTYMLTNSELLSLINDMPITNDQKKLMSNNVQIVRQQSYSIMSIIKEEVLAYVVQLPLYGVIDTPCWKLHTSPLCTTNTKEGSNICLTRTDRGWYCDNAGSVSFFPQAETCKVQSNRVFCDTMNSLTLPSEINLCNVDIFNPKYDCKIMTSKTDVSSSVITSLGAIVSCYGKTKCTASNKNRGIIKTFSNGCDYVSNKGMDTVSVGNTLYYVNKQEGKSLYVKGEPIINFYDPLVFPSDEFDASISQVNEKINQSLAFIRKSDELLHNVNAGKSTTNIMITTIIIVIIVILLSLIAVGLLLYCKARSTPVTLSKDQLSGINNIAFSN

anti-prefusion F antibody D25
complete neutralization of 300 PFU of RSV-HRP (HRP signal OD490, HEp-2 cells): 370 ng/mL | complete neutralization of 300 PFU of RSV-Lucia (secreted luciferase, luminometer) (antibody dilution (1:x, of 1 mg/ml)): 2700 | highest dilution at which the antibody negatively impacted RSV infectivity (RSV-Lucia): 5 ng/mL and 1.7 ng/mL | highest dilution at which the antibody negatively impacted RSV-HRP infectivity: 5 ng/mL
